Experimental data published in article PMC4585734, “RBM45 homo-oligomerization mediates association with ALS-linked proteins and stress granules” (Scientific Reports, 2015).
“And” between values parts separate entries of the source, which are not always exact repeats. Equal values may be shown once.

Tests used:
[1] = target: the molecule itself; experiment: cross-linking; in vivo DSS cross-linking of live HEK293 stably expressing FLAG-RBM45, DSS 0 to 5000 uM; denaturing SDS-PAGE and immunoblot
[2] = target: the molecule itself; experiment: cross-linking; in vivo DSS cross-linking (1 mM DSS for 10 minutes, room temperature, PBS) of HEK293 expressing HA-RBM45 constructs; SDS-PAGE and immunoblot

Protein	stoichiometry N [1]	stoichiometry N [2]
FLAG-tagged RBM45 (full-length FLAG-RBM45) (natural protein, human, UniProt Q8IUH3-3 1-474, looked up, pcDNA3; band of 56.6 kD; also called 3xFLAG-RBM45; FLAG-RMB45; source: HEK293, transfected or stably expressing, in lysate or in cells; not shown: 3xFLAG, N-terminal, kept) MDEAGSSASGGGFRPGVDSLDEPPNSRIFLVISKYTPESVLRERFSPFGDIQDIWVVRDKHTKESKGIAFVKFARSSQACRAMEEMHGQCLGPNDTKPIKVFIAQSRSSGSHRDVEDEELTRIFVMIPKSYTEEDLREKFKVYGDIEYCSIIKNKVTGESKGLGYVRYLKPSQAAQAIENCDRSFRAILAEPKNKASESSEQDYYSNMRQEALGHEPRVNMFPFEQQSEFSSFDKNDSRGQEAISKRLSVVSRVPFTEEQLFSIFDIVPGLEYCEVQRDPYSNYGHGVVQYFNVASAIYAKYKLHGFQYPPGNRIGVSFIDDGSNATDLLRKMATQMVAAQLASMVWNNPSQQQFMQFGGSSGSQLPQIQTDVVLPSCKKKAPAETPVKERLFIVFNPHPLPLDVLEDIFCRFGNLIEVYLVSGKNVGYAKYADRISANDAIATLHGKILNGVRLKVMLADSPREESNKRQRTY	2 and 5	–
HA-tagged full-length RBM45 (natural protein, human, UniProt Q8IUH3-3 1-474, looked up, pcDNA3; also called HA-RBM45; HA-RBM45 wild-type; source: HEK293, transfected, in lysate or in cells; not shown: 2xHA, N-terminal, kept) MDEAGSSASGGGFRPGVDSLDEPPNSRIFLVISKYTPESVLRERFSPFGDIQDIWVVRDKHTKESKGIAFVKFARSSQACRAMEEMHGQCLGPNDTKPIKVFIAQSRSSGSHRDVEDEELTRIFVMIPKSYTEEDLREKFKVYGDIEYCSIIKNKVTGESKGLGYVRYLKPSQAAQAIENCDRSFRAILAEPKNKASESSEQDYYSNMRQEALGHEPRVNMFPFEQQSEFSSFDKNDSRGQEAISKRLSVVSRVPFTEEQLFSIFDIVPGLEYCEVQRDPYSNYGHGVVQYFNVASAIYAKYKLHGFQYPPGNRIGVSFIDDGSNATDLLRKMATQMVAAQLASMVWNNPSQQQFMQFGGSSGSQLPQIQTDVVLPSCKKKAPAETPVKERLFIVFNPHPLPLDVLEDIFCRFGNLIEVYLVSGKNVGYAKYADRISANDAIATLHGKILNGVRLKVMLADSPREESNKRQRTY	–	5 and 10
HA-RBM45 NLS M2/3 double mutant (natural protein, human, UniProt Q8IUH3-3 1-474, looked up, also called NLS-M2/3 mutant; HA-RBM45-NLS mutant; source: HEK293, transfected, in lysate or in cells; not shown: 2xHA, N-terminal, kept) MDEAGSSASGGGFRPGVDSLDEPPNSRIFLVISKYTPESVLRERFSPFGDIQDIWVVRDKHTKESKGIAFVKFARSSQACRAMEEMHGQCLGPNDTKPIKVFIAQSRSSGSHRDVEDEELTRIFVMIPKSYTEEDLREKFKVYGDIEYCSIIKNKVTGESKGLGYVRYLKPSQAAQAIENCDRSFRAILAEPKNKASESSEQDYYSNMRQEALGHEPRVNMFPFEQQSEFSSFDKNDSRGQEAISKRLSVVSRVPFTEEQLFSIFDIVPGLEYCEVQRDPYSNYGHGVVQYFNVASAIYAKYKLHGFQYPPGNRIGVSFIDDGSNATDLLRKMATQMVAAQLASMVWNNPSQQQFMQFGGSSGSQLPQIQTDVVLPSCKKKAPAETPVKERLFIVFNPHPLPLDVLEDIFCRFGNLIEVYLVSGKNVGYAKYADRISANDAIATLHGKILNGVALAVMLADSPAEESNAAQATY	–	5
HA-RBM45 deletion construct D1 (Δ212–216) (natural protein, human, UniProt Q8IUH3-3 1-474, looked up, also called HA-RBM45 D1 mutant; source: HEK293, transfected, in lysate or in cells; not shown: 2xHA, N-terminal, kept) MDEAGSSASGGGFRPGVDSLDEPPNSRIFLVISKYTPESVLRERFSPFGDIQDIWVVRDKHTKESKGIAFVKFARSSQACRAMEEMHGQCLGPNDTKPIKVFIAQSRSSGSHRDVEDEELTRIFVMIPKSYTEEDLREKFKVYGDIEYCSIIKNKVTGESKGLGYVRYLKPSQAAQAIENCDRSFRAILAEPKNKASESSEQDYYSNMRQEPRVNMFPFEQQSEFSSFDKNDSRGQEAISKRLSVVSRVPFTEEQLFSIFDIVPGLEYCEVQRDPYSNYGHGVVQYFNVASAIYAKYKLHGFQYPPGNRIGVSFIDDGSNATDLLRKMATQMVAAQLASMVWNNPSQQQFMQFGGSSGSQLPQIQTDVVLPSCKKKAPAETPVKERLFIVFNPHPLPLDVLEDIFCRFGNLIEVYLVSGKNVGYAKYADRISANDAIATLHGKILNGVRLKVMLADSPREESNKRQRTY	–	5
truncated HA-RBM45 variant (107–474) that lacks RRM1 (domain or fragment, human, UniProt Q8IUH3-3 107-474, looked up, source: HEK293, transfected, in cells; not shown: 2xHA, N-terminal, kept) RSSGSHRDVEDEELTRIFVMIPKSYTEEDLREKFKVYGDIEYCSIIKNKVTGESKGLGYVRYLKPSQAAQAIENCDRSFRAILAEPKNKASESSEQDYYSNMRQEALGHEPRVNMFPFEQQSEFSSFDKNDSRGQEAISKRLSVVSRVPFTEEQLFSIFDIVPGLEYCEVQRDPYSNYGHGVVQYFNVASAIYAKYKLHGFQYPPGNRIGVSFIDDGSNATDLLRKMATQMVAAQLASMVWNNPSQQQFMQFGGSSGSQLPQIQTDVVLPSCKKKAPAETPVKERLFIVFNPHPLPLDVLEDIFCRFGNLIEVYLVSGKNVGYAKYADRISANDAIATLHGKILNGVRLKVMLADSPREESNKRQRTY	–	5
HA-RBM45 deletion construct D2 (Δ230–234) (natural protein, human, UniProt Q8IUH3-3 1-474, looked up, source: HEK293, transfected, in lysate or in cells; not shown: 2xHA, N-terminal, kept) MDEAGSSASGGGFRPGVDSLDEPPNSRIFLVISKYTPESVLRERFSPFGDIQDIWVVRDKHTKESKGIAFVKFARSSQACRAMEEMHGQCLGPNDTKPIKVFIAQSRSSGSHRDVEDEELTRIFVMIPKSYTEEDLREKFKVYGDIEYCSIIKNKVTGESKGLGYVRYLKPSQAAQAIENCDRSFRAILAEPKNKASESSEQDYYSNMRQEALGHEPRVNMFPFEQQSEKNDSRGQEAISKRLSVVSRVPFTEEQLFSIFDIVPGLEYCEVQRDPYSNYGHGVVQYFNVASAIYAKYKLHGFQYPPGNRIGVSFIDDGSNATDLLRKMATQMVAAQLASMVWNNPSQQQFMQFGGSSGSQLPQIQTDVVLPSCKKKAPAETPVKERLFIVFNPHPLPLDVLEDIFCRFGNLIEVYLVSGKNVGYAKYADRISANDAIATLHGKILNGVRLKVMLADSPREESNKRQRTY	–	5
